Assay [1] deals with T1, CRTC3 phosphorylated at serine 370 (pSer370) (Homo sapiens, UniProt Q6UUV7).
T1 construct: All recombinant CRTC3 full-length protein versions are preceded with; FLAG (N); AVI (N); made in house; host or cells: Baculovirus expression system
T1 sequence (Q6UUV7 1-619): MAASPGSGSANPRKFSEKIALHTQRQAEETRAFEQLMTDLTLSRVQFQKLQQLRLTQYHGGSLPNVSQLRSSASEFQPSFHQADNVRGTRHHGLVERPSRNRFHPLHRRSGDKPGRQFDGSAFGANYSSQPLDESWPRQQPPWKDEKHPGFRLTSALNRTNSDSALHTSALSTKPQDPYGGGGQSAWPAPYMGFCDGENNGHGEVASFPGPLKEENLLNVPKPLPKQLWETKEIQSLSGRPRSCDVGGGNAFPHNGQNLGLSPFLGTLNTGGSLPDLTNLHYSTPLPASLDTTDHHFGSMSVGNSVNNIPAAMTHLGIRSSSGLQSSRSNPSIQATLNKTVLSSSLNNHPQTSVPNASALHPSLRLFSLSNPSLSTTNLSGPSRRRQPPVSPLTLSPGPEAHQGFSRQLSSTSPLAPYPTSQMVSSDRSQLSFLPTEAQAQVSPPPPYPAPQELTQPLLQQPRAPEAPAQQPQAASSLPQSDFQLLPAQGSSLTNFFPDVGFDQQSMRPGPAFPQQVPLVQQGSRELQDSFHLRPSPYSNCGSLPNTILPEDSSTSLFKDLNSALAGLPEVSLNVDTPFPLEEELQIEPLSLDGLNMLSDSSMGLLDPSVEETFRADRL
Briefly: Immunoblotting of in vitro phosphorylated recombinant CRTC3 wild type vs S370A mutant protein. The class given is binding. Conditions: for specific recognition of human CRTC3 by phosphorylation state (conclusion of the experiments): serine 370. From the text:
(§1) To facilitate the identification of hybridomas that produced antibodies specific for the phosphorylated immunizing peptides, CRTC3 proteins were designed that harbored serine to alanine mutations at either position 329 (S329A mutant) or 370 (S370A mutant; Table 3) rendering them unable to carry phosphate groups at positions 329 and 370, respectively. In addition, CRTC3 protein harboring the unmutated wild type (WT) amino acid sequence was produced as a control reagent (Table 3). Briefly, proteins were overexpressed in a Baculovirus expression system and purified using M2 anti-flag magnetic beads (Millipore-Sigma). The wild type protein was additionally subjected to subsequent size exclusion chromatography. All purified proteins were phosphorylated in vitro in the presence of internally produced SIK2 variant (6His-MBP-TEV-SIK2-PKD-UBA; SEQ ID NO: 187) and 1 mM ATP (Promega) in a buffer containing 50 mM Tris pH 7.5, 100 mM NaCl, 10 mM MgCl2 (all from Quality Biologicals), 0.1 mM EDTA (Corning), 1 mM DTT (MP Biomedicals). Phosphorylation reactions were quenched by the addition of excess EDTA.
(§2) Immunoblotting was done using the NuPAGE electrophoresis and western Blotting system (Invitrogen). Briefly, 0.1-0.15 microgram of WT or S329A mutant or S370A mutant recombinant protein along with WesternSure® Pre-stained Chemiluminescent Protein Ladder (Li-Cor) were loaded onto NuPAGE® Bis-Tris gels and separated by electrophoresis. Subsequently, proteins were transferred onto nitrocellulose membranes (iBlot® 2 Transfer Stacks, nitrocellulose, mini; ThermoFisher) using an iBlot 2® Gel Transfer Device (ThermoFisher). Specific bands on the nitrocellulose membranes were detected using the automatic Western blot-processing iBind™ Flex Western System (ThermoFisher) as per the manufacturer's recommendations. As primary antibodies served either undiluted hybridoma supernatant or recombinantly expressed mAbs at 0.25 microgram/ml, whereas Peroxidase AffiniPure Donkey Anti-Rabbit IgG (H+L) (Jackson ImmunoResearch) was used as secondary antibody at a 1:4000 dilution. The blots were developed using Amersham ECL Western Blotting Detection Reagent and an ImageQuant LAS4000 image scanner (both GE Healthcare Life Sciences).
A general note: In western blotting, separated proteins are transferred to a membrane and probed.

The test system of assay [2] is phosphorylated CRTC3 in THP1 lysates. Nature of the assay: Immunoblotting of lysates of macrophage-differentiated, LPS-stimulated THP1 cells, untreated or incubated with dasatinib. The settings on record: recombinant mAb. Format: binding, human.
Excerpt: as §2
Cells were then either left untreated or incubated with dasatinib at 10 micromolar for 1.5 hours before cell harvest. […] Cells were washed in cold PBS (Gibco) and lysed on ice in 50 mM Tris HCl (Alfa Aesar) at pH 7.4, 1 mM DTT, 1% (vol/vol) Triton X-100 (both ThermoFisher), 1 mM EDTA (Gibco), 1 mM EGTA (Alfa Aesar) supplemented with protease inhibitor (cOmplete™ ULTRA Tablets; Roche) and phosphatase inhibitor (Phosstop, Roche) as per the manufacturer's recommendations for 1 hour. Extracted proteins were harvested by collecting the supernatant after centrifugation of the lysate for 20 minutes. Protein concentrations were determined using the Pierce Detergent-compatible Bradford Assay kit (Pierce). Lysate proteins were separated by gel electrophoresis and detected by immunoblotting as described above. […] That the detected signals indeed corresponded to CRTC3 was verified in independent experiments, in which similarly treated THP1 lysates were developed using an antibody recognizing CRTC3 independent of its phosphorylation status (EPR3440; purified; rabbit; Abcam; data not shown).

For assay [3], the target named is T2, CRTC3 phosphorylated at serine 329 (pSer329) (Homo sapiens, UniProt Q6UUV7).
T2 construct: All recombinant CRTC3 full-length protein versions are preceded with; FLAG (N); AVI (N); made in house; host or cells: Baculovirus expression system
T2 sequence (Q6UUV7 1-619): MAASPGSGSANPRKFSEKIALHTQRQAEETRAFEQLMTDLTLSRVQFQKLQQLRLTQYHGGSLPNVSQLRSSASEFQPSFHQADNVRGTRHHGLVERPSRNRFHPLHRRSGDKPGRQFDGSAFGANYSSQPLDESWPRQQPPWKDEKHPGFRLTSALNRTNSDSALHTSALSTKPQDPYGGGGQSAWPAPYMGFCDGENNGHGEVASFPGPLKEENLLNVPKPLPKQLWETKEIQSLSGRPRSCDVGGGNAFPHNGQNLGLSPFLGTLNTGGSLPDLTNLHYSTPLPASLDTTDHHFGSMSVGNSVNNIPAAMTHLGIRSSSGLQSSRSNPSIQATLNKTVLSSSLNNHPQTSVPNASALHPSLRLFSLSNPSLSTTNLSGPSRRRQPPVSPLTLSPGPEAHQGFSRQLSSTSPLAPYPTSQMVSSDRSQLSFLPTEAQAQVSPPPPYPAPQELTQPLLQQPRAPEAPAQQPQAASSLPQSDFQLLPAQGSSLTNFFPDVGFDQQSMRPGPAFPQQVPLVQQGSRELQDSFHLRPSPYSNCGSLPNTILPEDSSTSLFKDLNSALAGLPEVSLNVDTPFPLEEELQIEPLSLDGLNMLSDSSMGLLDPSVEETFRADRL
Nature of the assay: Immunoblotting of in vitro phosphorylated recombinant CRTC3 wild type vs S329A mutant protein. The class given is binding. Conditions: for specific detection of human CRTC3 by phosphorylation state (conclusion of the experiments): serine 329.
Excerpt: as §1, §2

Where [4] appears, read: recombinant mAb at 0.25 microgram/ml, FIG. 2D.
Where [5] appears, read: undiluted hybridoma supernatant as primary antibody, FIG. 2B.
Setting [6] is: THP1 lysates not incubated with a SIK inhibitor (lane 3).
The mark [7] stands for this setting: THP1 lysates treated for 1.5 hours with dasatinib at 10 micromolar (lane 4).
The mark [8] stands for this setting: recombinantly expressed mAb at 0.25 microgram/ml, FIG. 2C.
[9] abbreviates: undiluted hybridoma tissue culture supernatant as primary antibody, FIG. 2A.

B1: mAb #157: anti-phospho-Serine370 CRTC3 monoclonal antibody from rabbit hybridoma; VH SEQ ID NO: 31, VL SEQ ID NO: 32 (antibody, V domains shown)
VH: QEQLKESGGGLFKPMDILTVTCTVSGISLSSYGLSWVRQAPGNGLEWIGAIGASGSAYYASWAKSRSTITRNTNLNTVTLKMTSLTAADTATYFCKRNYIWGPGTLVTVSS
VL: AQVLTQTASPVSAAVGGTVTINCQASQSVYSDNRLSWYQQKPGQPPKLLIYEASKLASGVPPRFSGSGSGTQFTLAISGVQCDDAATYYCQGSYDCNSADCSAFGGGTEVVVK
Consider B1, for which the “signal with recombinant CRTC3 WT vs S370A mutant by western blot” value in assay [1] (setting [4]) and in assay [1] (setting [5]) was “specific signal only with WT” each time. Besides, the “specific recognition of human CRTC3 by phosphorylation state (conclusion of the experiments)” value in assay [1] is “specifically recognized human CRTC3 only when phosphorylated at serine 370”. Besides, the “immunoblot signal at the expected molecular size in THP1 lysates” value (“immunoblot signal” for short) in assay [2] (setting [6]) was “strong signal”; in assay [2] (setting [7]) it was “strongly diminished”.

B2: mAb #21: anti-phospho-Serine329 CRTC3 monoclonal antibody from rabbit hybridoma; VH SEQ ID NO: 99, VL SEQ ID NO: 100 (antibody, V domains shown)
VH: QSVEESGGRLVTPGTPLTLTCTVSGIDLSSNTVSWVRQAPGKGLEWIGVSGYSGRPYYASWAKGRFTISKTSSTVHLKITSPTAEDTATYFCARGSVNVNIWGPGTLVTVSS
VL: AQVLTQTASPVSAAVGGTVTINCQSSQSVYSSNRLSWFQQKPGQPPKLLMYYTSTLASGVPSRFKGSGSGTEFTLTISGVQCDDAATYYCLGGYDCDIADCSAFGGGTEVVVK
Turning to B2, the “recognition of recombinant CRTC3 WT vs S329A variant by western blot” value in assay [3] (setting [8]) and in assay [3] (setting [9]) was “specifically recognized only recombinant CRTC3 protein harboring the WT sequence” in each case. Moreover, the “specific detection of human CRTC3 by phosphorylation state (conclusion of the experiments)” value in assay [3] is given as “specifically detected human CRTC3 only when phosphorylated at serine 329”. Also, the results for the “immunoblot signal” value in assay [2] (setting [6]) and in assay [2] (setting [7]) were “strong signal” and “strongly diminished”, respectively.

B3: mAb #82: anti-phospho-Serine329 CRTC3 monoclonal antibody from rabbit hybridoma; VH SEQ ID NO: 133, VL SEQ ID NO: 134 (antibody, V domains shown)
VH: QSVEESGGRLVTPGTPLTLTCTVSGIDLSSNTVSWVRQAPGKGLEWIGVIGYSGNGYYASWAKGRFTISKTSTTVDLKMTSPTAEDTATYFCARGSVNCNIWGPGTLVTVSS
VL: AQVLTQTASPVSAAVGGTVTINCQSSQSVISNNRLSWLQQKPGQPPKLLIYYASTLASGVPSRFKGSGSGTQFTLTISGVQCDDAATYYCLGGYDCNSADCSTFGGGTEVVVK
In the case of B3, the “recognition of recombinant CRTC3 WT vs S329A variant by western blot” value in assay [3] (setting [8]) and in assay [3] (setting [9]) was “specifically recognized only recombinant CRTC3 protein harboring the WT sequence” in each case. Further, the “specific detection of human CRTC3 by phosphorylation state (conclusion of the experiments)” value in assay [3] is on record as “specifically detected human CRTC3 only when phosphorylated at serine 329”. The “immunoblot signal” value in assay [2] (setting [6]) is listed as “strong signal”; in assay [2] (setting [7]), “strongly diminished”.

B4: mAb #170: anti-phospho-Serine370 CRTC3 monoclonal antibody from rabbit hybridoma; VH SEQ ID NO: 65, VL SEQ ID NO: 66 (antibody, V domains shown)
VH: QSMKESEGGLFKPTDTLTLTCTVSGFSLSRYGVIWVRQAPGKGLEFIGYISSTGSTYYASWAKSRSTITRNTNENTVTLKVTSLTAADTATYFCAQSGLGYDGGRNIWGPGTLVTVSS
VL: AAVLTQTPSPVSAAVGGTVSISCQSSKSVANSNWLSWYQQKPGQPPKLLIYSASTLASGAPSRFKGSGSGTQFTLTISDVQCDDAATYYCAGGYSDISDIFGFGGGTEVVVK
B4: the “signal with recombinant CRTC3 WT vs S370A mutant by western blot” value in assay [1] (setting [4]) and in assay [1] (setting [5]) was “specific signal only with WT” throughout. The “specific recognition of human CRTC3 by phosphorylation state (conclusion of the experiments)” value in assay [1] was “specifically recognized human CRTC3 only when phosphorylated at serine 370”. Moreover, the results for the “immunoblot signal” value in assay [2] (setting [6]) and in assay [2] (setting [7]) were “strong signal” and “strongly diminished”, respectively.

(Values after patent publication US20240262900A1, “MATERIALS AND METHODS FOR DIFFERENTIATING CREB REGULATEDTRANSCRIPTION COACTIVATOR 3” (JANSSEN BIOTECH, INC., priority 2021, published 2024).)
